Assay results reported in patent publication US20220242957A1 (MARENGO THERAPEUTICS, published 2022).

B1: BIM0548 (antibody, human IgG1, lambda)
heavy: EVQLVESGGGLVQPGGSLRLSCAASGFTFSNDEMNWIRQAPGKGLEWVSYISSRSSTIYYADAVKGRFTISRDNARNSLYLQMNSLRAEDTAVYYCARSVDGDGSFDYWGQGTLVTVSSASTKGPSVFPLAPSSKSTSGGTAALGCLVKDYFPEPVTVSWNSGALTSGVHTFPAVLQSSGLYSLSSVVTVPSSSLGTQTYICNVNHKPSNTKVDKRVEPKSCDKTHTCPPCPAPELLGGPSVFLFPPKPKDTLMISRTPEVTCVVVDVSHEDPEVKFNWYVDGVEVHNAKTKPREEQYNSTYRVVSVLTVLHQDWLNGKEYKCKVSNKALPAPIEKTISKAKGQPREPQVCTLPPSREEMTKNQVSLSCAVKGFYPSDIAVEWESNGQPENNYKTTPPVLDSDGSFFLVSKLTVDKSRWQQGNVFSCSVMHEALHNHYTQKSLSLSPGK
light: QLVLTQPPSVSGAPGQRVTISCTGSSSNIGAGYDVHWYQQLPGTAPKLLIYGNSNRPSGVPDRFSGSKSGTSASLAITGLQAEDEADYYCQSYDSSLSEEVFGGGTKLTVLGQPKANPTVTLFPPSSEELQANKATLVCLISDFYPGAVTVAWKADGSPVKAGVETTKPSKQSNNKYAASSYLSLTPEQWKSHRSYSCQVTHEGSTVEKTVAPTECS
chain: not shown
B2: BIM0554 (antibody, human IgG1, lambda)
heavy: not shown
light: SLVLTQPPSVSVAPGKTARITCGGNNIGSKSVHWYQQKPGQAPVLVVYDDSDRPSGIPERFSGSNSGNTATLTISRVEAGDEADYYCQVWDSSSDHVVFGGGTQLTVLGQPKANPTVTLFPPSSEELQANKATLVCLISDFYPGAVTVAWKADGSPVKAGVETTKPSKQSNNKYAASSYLSLTPEQWKSHRSYSCQVTHEGSTVEKTVAPTECS
chain: not shown

Target: human CSF1R (human, UniProt P07333 20-972)
Sequence (P07333 20-972): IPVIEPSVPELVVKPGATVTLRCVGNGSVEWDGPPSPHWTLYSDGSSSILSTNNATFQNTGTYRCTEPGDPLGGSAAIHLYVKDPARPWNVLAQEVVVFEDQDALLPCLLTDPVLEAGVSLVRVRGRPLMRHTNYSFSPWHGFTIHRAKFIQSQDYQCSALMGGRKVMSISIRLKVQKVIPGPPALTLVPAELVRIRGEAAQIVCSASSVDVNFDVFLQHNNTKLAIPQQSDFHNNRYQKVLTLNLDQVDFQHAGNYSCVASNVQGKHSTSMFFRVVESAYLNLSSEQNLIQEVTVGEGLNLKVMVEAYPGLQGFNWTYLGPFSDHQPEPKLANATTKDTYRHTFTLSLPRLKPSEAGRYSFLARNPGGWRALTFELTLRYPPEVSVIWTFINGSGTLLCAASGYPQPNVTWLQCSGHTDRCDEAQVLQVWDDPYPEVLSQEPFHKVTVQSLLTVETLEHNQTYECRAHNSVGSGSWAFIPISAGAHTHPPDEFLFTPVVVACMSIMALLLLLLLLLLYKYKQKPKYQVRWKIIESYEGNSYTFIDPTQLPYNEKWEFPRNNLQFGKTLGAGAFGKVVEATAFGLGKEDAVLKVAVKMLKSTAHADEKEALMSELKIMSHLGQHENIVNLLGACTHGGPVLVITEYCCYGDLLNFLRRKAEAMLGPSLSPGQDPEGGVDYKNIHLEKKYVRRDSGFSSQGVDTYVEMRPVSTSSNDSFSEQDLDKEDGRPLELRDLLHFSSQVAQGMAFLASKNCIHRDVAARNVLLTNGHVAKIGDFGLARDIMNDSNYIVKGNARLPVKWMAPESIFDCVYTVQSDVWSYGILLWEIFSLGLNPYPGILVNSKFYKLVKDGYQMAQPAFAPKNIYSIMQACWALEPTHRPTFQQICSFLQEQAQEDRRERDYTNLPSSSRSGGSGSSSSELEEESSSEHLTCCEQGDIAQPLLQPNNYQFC
Assay: cell-based or functional assay

| Binder | IC50 of reduction of MCP-1 (CCL2) secretion by human monocytes cultured with hCSF-1 (electrochemiluminescence) [nM] |
| --- | --- |
| B1 | ≤ 30 |
| B2 | ≤ 30 |
